Data as given in paper doi:10.1101/2021.08.23.457419 (bioRxiv, 2021).
Where no end group is shown, it is not given here.

Experiments:
[1] = target: T1, SARS-CoV-2 main protease (M^pro), wild type (SARS-CoV-2, UniProt P0DTD1); assay: cell-based or functional assay
[2] = target: T1, SARS-CoV-2 main protease (M^pro), wild …; assay: […]

Binder: YLQYAVLRHKRREC (also: cyclic, mode of cyclization not given here) [cyclic peptide 1]
- IC50, inhibition of M^pro proteolytic activity (FRET substrate cleavage) [1]: 70 nM
- Ki [2]: 14 nM
